Data taken from the supplement of paper PMC7125110.
± gives the standard error. Fewer inactive variants are shown than the library holds.

B1: glmS ribozyme (parent)
chain: AUAAAAGCGCCAGAACUACAGAAAUGUAGUUGACGAGGAGGAGGUUUAUCGAAUUUUCGGCGGAUGCCUCCAAA

Legend:
Details in all cases: with glucosamine-6-phosphate
glucosamine-6-phosphate [1] = variants of: B1; assay: self-cleavage kobs at 40 uM GlcN6P; higher = faster cleavage; RNA array
Outline: (§1)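 kcat and KM were obtained from weighted Michaelis–Menten fits across concentrations of kobs values. Those came from one- or two-exponential decay fits to per-tile medians normalised to baseline and to non-cleaving reference variants. The variants were barcoded ribozymes transcribed in situ by E. coli RNA polymerase on sequenced MiSeq chips and tracked through a hybridised Cy3 probe at 37 °C, with 40 μM to 10 mM glucosamine-6-phosphate in HEPES/KCl/Mg(OAc)2 buffer flowed in.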

glucosamine-6-phosphate [2] = variants of: B1; assay: self-cleavage kobs at 160 uM GlcN6P; higher = faster cleavage; RNA array
Outline: as §1

glucosamine-6-phosphate [3] = variants of: B1; assay: self-cleavage kobs at 640 uM GlcN6P; higher = faster cleavage; RNA array
Outline: as §1

glucosamine-6-phosphate [4] = variants of: B1; assay: self-cleavage kobs at 10000 uM GlcN6P; higher = faster cleavage; RNA array
Outline: as §1

glucosamine-6-phosphate [5] = variants of: B1; assay: self-cleavage kobs at 2500 uM GlcN6P; higher = faster cleavage; RNA array
Outline: as §1

Variant	self-cleavage kobs at 40 uM GlcN6P (glucosamine-6-phosphate [1]) [s⁻¹]	self-cleavage kobs at 160 uM GlcN6P (glucosamine-6-phosphate [2]) [s⁻¹]	self-cleavage kobs at 640 uM GlcN6P (glucosamine-6-phosphate [3]) [s⁻¹]	self-cleavage kobs at 10000 uM GlcN6P (glucosamine-6-phosphate [4]) [s⁻¹]	self-cleavage kobs at 2500 uM GlcN6P (glucosamine-6-phosphate [5]) [s⁻¹]
AUAAAAGCUCCACAACUACAGAAAUGUAGUUGACGAGGAGGAGGUUUAUCGAAUUUUCGGCGGAUGCCUCCAAA [G9U G13C]	< 1e-05	< 1e-05	< 1e-05	< 1e-05	–
AUAAAAGCUCCAGAACUACAGAAAUGUAGUUGACGAGGAGGAGGUUUAUCCAAUUUUCGGCGGAUGCCUCCAAA [G9U G51C]	< 1e-05	< 1e-05	–	< 1e-05	–
AUAAAAGCUCCAGAACUACAGAAAUGUAGUUGACGAGGAGGAGGUUUAUCUAAUUUUCGGCGGAUGCCUCCAAA [G9U G51U]	< 1e-05	< 1e-05	< 1e-05	< 1e-05	–
AUAAAAGCUCCAGAACUACAGAAAUGUAGUUGACGAGGAGGAGGGUUAUGGAAUUUUCGGCGGAUGCCUCCAAA [G9U U45G C50G]	< 1e-05	< 1e-05	< 1e-05	< 1e-05	–
AUAAAAGCUCCAGAACUACAGAAAUGUAGUUGACAAGGAGGAGGUUUAUCGAAUUUUCGGCGGAUGCCUCCAAA [G9U G35A]	< 1e-05	< 1e-05	< 1e-05	< 1e-05	< 1e-05
AUAAAAGCUCCAGAACUACAGAAAUGUAGUUGACGAGGAGUGGGUUUAUCGAAUUUUCGGCGGUUGCCUCUAAA [G9U G41U A42G A64U C71U]	< 1e-05	–	–	< 1e-05	–
AUAAAAGCUCCAGAACUACAGAAAUGUAGUUGACGAGGAGGAGGUUUAUCGAAUUUUCGGCGGAUGCCCCCAAA [G9U U69C]	< 1e-05	–	–	–	< 1e-05
AUAAAAGCUCCAGAACUACAGAAAUGUAGUUGACGAGGAGCAGGUUUAUCGAAUUUUCGGCGGAUGCCUCCAAA [G9U G41C]	< 1e-05	< 1e-05	–	–	< 1e-05
AUAAAAGCGACAGAACUACAGAAAUGUAGUUGCCGAGGAGGAGGUUUAUCGAAUUUUCGGCGGCUGCCUCCAAA [C10A A33C A64C]	< 1e-05	–	–	< 1e-05	< 1e-05
AUAAAAGCUCCAGAACUACAGAAAUGUAGUUGACGAGAAGGAGGUUUAUCGAAUUCUCGGCGUAUGCCUCCAAA [G9U G38A U56C G63U]	< 1e-05	–	–	< 1e-05	–
AUAAAAGCUCCAGAACUACAGAAAUGUAGUGCACGAGGAGGAGGUUUAUCGAAUUUUCGGCAGAUGCCUCCAAA [G9U U31G G32C G62A]	< 1e-05	–	–	–	–
AUAAAAGCGACAGUACUACAGAAAUGUAGUUGACGAGGAGGAGGUUUAUCGAAUUUUCGGCGGAUGCCUACAAA [C10A A14U C70A]	5.36e-05 ± 2.5e-05	–	–	3.49e-05 ± 1.4e-05	–
AUAAAAGCUCCAGAACUACAGAAAUGUACCUGACGAGGAGGAGGUUUAUCGAAUUUUCGGCGGAUGCCUCCAAA [G9U G29C U30C]	< 1e-05	< 1e-05	< 1e-05	< 1e-05	< 1e-05
AUAAAAGCUCCAGAACUACAGAAAUGUAGUGGACGAGGAGGAGGUUUAUCGAAUUUUCGGCGGAUGCCUCCAAA [G9U U31G]	< 1e-05	< 1e-05	< 1e-05	< 1e-05	< 1e-05
AUAAAAGCUCCAGAACUACAGAAAUGUAGUUGACGAGGAGGAGGUUUAUUGAAUUUUCGGCGGAUGCCUUCAAA [G9U C50U C70U]	< 1e-05	–	–	–	–
AUAAAAGCGACAGCACUACAGAAAUGUAGUUGACGAGGAGGCGGUUUAUCGAAUUUUCGGCGAAUGCCUCCAAA [C10A A14C A42C G63A]	< 1e-05	< 1e-05	–	< 1e-05	–
AUAAAAGCGACAGCACUACAGAAAUGUAGUUGACGAGGAGGAGGCUUAUCGAAUUUUCGGCGGAUGCUUCCAAA [C10A A14C U45C C68U]	< 1e-05	–	< 1e-05	< 1e-05	< 1e-05
AUAAAAGCUCCAGAACUACAGAAAUGUAGUUGACGAGGAGGAGGUUUAUCGAAUUUUCGGCGGAUGCUUUCAAA [G9U C68U C70U]	< 1e-05	< 1e-05	< 1e-05	< 1e-05	< 1e-05
AUAAAAGCUCCAGAACUACAGAAAUGUAGUUGACGAGGAGGAGGUUUAUCGAAUUUUCGGCGGAUGCCUUCAAA [G9U C70U]	< 1e-05	< 1e-05	< 1e-05	< 1e-05	–
AUAAAAGCUCCAGAACUACAGAAAUGUAGUUGACGAAGAGGAGGUUUAUCGAAUUUUCGGCGGAUGCCUCCAAA [G9U G37A]	< 1e-05	< 1e-05	–	–	< 1e-05
AUAAAAGCUCCAGAACUACAGAAAUGUAGUUGACGAGGAGGAGGUUUAUCGAAUUUUCGGCGGAUGGCUCCAAA [G9U C67G]	< 1e-05	< 1e-05	–	–	< 1e-05
AUAAAAGCUCCAGAACUACAGAAAUGUAUUUGACGAGGAGGGGGUUUAUCGAAUUUUCGGCGGAGGCCUCCAAA [G9U G29U A42G U65G]	< 1e-05	–	–	< 1e-05	–
AUAAAAGCUCCAGAACUACAGAAAUGUAGUUGAACAGGAGGAUGUUUAUCGAAUUUUCGGCGGAUGCCUCCAAA [G9U C34A G35C G43U]	< 1e-05	–	–	–	< 1e-05
AUAAAAGCUCCAGAAGUACAGAAAUGUAGUUGACGAGGAGGAGGUUUAUCGAAUUUUCGGCGGAUGCCUCUAAA [G9U C16G C71U]	< 1e-05	–	–	–	< 1e-05
